B1: library; numbered along this chain (parent)
chain: MAAAAAAAAEQQSSNGPVKKSMREKAVERRSVNKEHNSNFKAGYIPIDEDRLHKTGLRGRKGNLAICVIILLFILAVINLIITLVIWAVIRIGPNGCDSMEFHESGLLRFKQVSDMGVIHPLYKSTVGGRRNENLVITGNNQPIVFQQGTTKLSVENNKTSITSDIGMQFFDPRTQNILFSTDYETHEFHLPSGVKSLNVQKASTERITSNATSDLNIKVDGRAIVRGNEGVFIMGKTIEFHMGGNMELKAENSIILNGSVMVSTTRLPSSSSGDQLGSGDWVRYKLCMCADGTLFKVQVTSQNMGCQISDNPCGNTH

Variants of: B1
Assay: SGCB cell-surface expression functional score (HA stain, bin4 vs bin1, normalised to synonymous) (log10 ratio); higher = more cell-surface SGCB (functional)
Description: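 Deep mutational scan of full-length human SGCB (YFP-SGCB-HA, NNN codon sublibraries A-F) delivered by lentivirus at low MOI into ADG-HEK293 cells stably expressing SGCA, SGCD and SGCG. YFP-positive cells were stained for surface HA on unpermeabilized cells and FACS-sorted into bins. The functional score is log10(frequency in high bin 4 / frequency in low bin 1), normalised per chunk so that synonymous variants have mean 0 and SD 0.5. Scores are the median over codons and over duplicate biological replicates; scores below -0.5 are called non-functional. Scale: negative means deleterious.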

SGCB cell-surface expression functional score (log10), by site and new letter:
A5: Y 0.39; R -0.2; F 0.61; N -0.07; M 0.25; E -0.03; P -0.19; H 0.12; C 0.11; S 0.1; I 0.29; T 0.22; W 0.56; G 0.2; D -0.01; V 0.01; K 0.07; Q 0.33; L 0.24
N15: M 0.35; K 0.05; Q 0.32; A 0.45; R 0.19; V 0.31; H -0.07; F 0.28; I 0.04; S -0.02; L 0.32; P 0.34; W 0.29; Y 0.13; E 0.33; G 0.04; C 0.19; T 0.14; D -0.15
A9: C 0.54; R 0.3; Y 0.45; K 0.19; G 0.37; S 0.12; P 0.17; E 0.28; N -0.39; F 0.04; I 0.35; L 0.19; V 0.15; M 0.67; H 0.18; W -0.24; T 0.39; Q 0.46; D 0.38
M1: I -1.06; R -0.06; V 0.28; P 0.21; H 0.01; E -0.03; Y -0.02; T -1.08; A 0.12; L -1.26; D 0.69; N 0.37; S 0.07; F -0.28; W -0.07; Q 0.35; C 0.25; G 0.1; K 0.14
Q12: G 0.12; W -0.29; R 0.29; H 0.03; E 0; L 0.03; N 0.01; A 0.29; P 0.06; S 0.04; Y -0.05; F -0.27; M -0.09; I -0.43; T -0.35; K 0.02; D -0.24; C -0.19; V -0.06
S14: E 0.27; H 0.09; Q 0.46; C 0.04; R 0.04; I 0.03; G 0.43; A 0.14; W -0.06; D 0.3; V 0.21; M 0.08; N 0.61; L 0.1; Y -0.15; F 0.19; P 0.22; K 0.31; T -0.01
V18: C -0.07; D 0.09; K 0.16; H -0.54; A 0.26; G 0.04; F 0; M -0.08; E 0.13; I 0.24; L -0.01
G16: R 0.04; N 0.14; M 0.4; P 0.37; F 0.52; S 0.37; H 0.08; A -0.31; D 0.57; C -0.06; Y 0.23; I -0.02; L -0.08; W 0.23; V 0.38; E 0.38; Q 0.97; T -0.27; K 0.11
Q11: I -0.5; D 0.04; L 0.04; G 0.64; T -0.02; Y 0.17; K -0.03; N 0.3; C 0.65; W 0.61; E 0.17; V -0.03; S 0.39; M -0.03; R 0.14; H 0.19; A -0.04; P 0.41; F 0.07
A7: T 0.27; V 0.16; I 0.29; C 0.18; S -0.09; N 0.06; G 0.2; Q 0.41; L 0.13; K 0.48; D 0.19; E -0.36; F 0.02; Y 0.05; R 0.24; W 0.57; H -0.54; P 0.29; M 0.23
S13: V 0.2; A 0.2; H 0.13; T -0.13; W 0.8; Y 0.05; F -0.45; R -0.07; D 0.05; M 0.29; N 0.08; K 0.46; C -0.36; E 0.25; G -0.08; P 0.2; Q 0.29; I -0.1; L 0.02
A6: N 0.26; H -0.23; G 0.15; L -0.21; P 0.11; I 0.36; R 0; F 0.37; K -0.2; S 0.25; V 0.22; E -0.14; M 0.13; Y 0.61; Q 0.69; D 0.24; T 0.07; W -0.46; C -0.11
A4: Q -0.48; K -0.03; G 0.26; D 0.21; L 0.45; V -0.06; W -0.07; T 0.36; R -0.11; N -0.48; F -0.21; P 0.44; E -0.43; I 0.3; C 0.4; Y -0.14; M 0.19; S 0.05; H 0.44
P17: G -0.18; L -0.13; Q -0.31; D 0.27; E 0.21; K 0.13; I -0.28; F 0.2; Y 0.31; W -0.2; H 0.1; T 0.31; V -0.13; R -0.12; A 0.2; S 0.12; C 0.46; N 0.1; M -0.04
A8: E 0.48; R 0.09; G 0.3; T 0.33; Q -0.13; F -0.02; H 0.25; M -0.04; P 0.35; W 1.01; S 0.05; K 0.32; C 0.27; V 0.43; D 0.14; I 0.15; L -0.18; Y 0.51; N 0.12
E10: H 0.08; M -0.03; I 0.41; C 0.47; F -0.46; G 0.28; T 0.27; V -0.1; A 0.17; S 0.03; R 0.14; W -0.16; Y 0.17; L 0.02; P 0.05; N 0.39; K 0.18; Q 0.15; D 0.45
A3: C -0.24; D 0.14; Y 0.27; P 0.42; T 0.17; M 0.11; Q 0.11; E 0.2; I -0.02; H 0.3; R 0.15; K 0.06; V 0.12; W 0.1; F 0.22; G 0.02; S -0.23; N 0.29; L -0.02
A2: H 0.34; Q 0.19; L 0.2; F -0.48; N 0.38; R 0.03; D -0.07; V 0.12; S 0.14; W -0.4; Y 0.14; P 0.24; I 0.13; C 0.1; T 0.11; M 0.02; K 0.23; E -0.61; G 0.17

— the supplement of paper PMC10266784
